Results as given in PMC9114487, “Generation of a High-Affinity Nanobody Against CD147 for Tumor Targeting and Therapeutic Efficacy Through Conjugating Doxorubicin” (Frontiers in Immunology, 2022).
Substitutions are numbered along the chain they refer to.

B1: EGFP-VHH fusion protein EGFP-11-1 (VHH)
VHH: QVQLQESGGGSVQAGGSLRLSCAVSGYTYSSCSMDWYRQAPGKERELVSSISSGGNTYYEDSVKGRFTISQDNAKNTVYLQMNSLKPEDTASYYCKMWCPGNKSYWGQGTQVTVSS
notes: as the VHH of m1; About 40 kDa by SDS-PAGE; also called 11-1-EGFP; EGFP-11-1 Nbs; source: E. coli BL21(DE3), pET-25b, purified (His-Trap HP column); not shown: EGFP, C-terminal, kept
B2: anti-CD147 nanobody 11-1 (VHH)
VHH: B1 VHH
notes: Selected by phage display from an immune VHH library; The immunised animal is called an alpaca in the methods, a camel in the results and a Bactrian camel in the discussion; About 13 kDa by SDS-PAGE; Surmise: pET-15b usually adds an N-terminal His tag; also called Nb 11-1; anti-CD147-VHH Nb (11-1); source: E. coli BL21(DE3), pET-15b, purified (His-Trap HP column)
B3: V-5 (VHH)
VHH: QVQLQESGGGSVQAGETLTLSCTASGYTFSSSNCMGWFRQAPGQEREDVAIISVRGGITYYADSVKGRFTISRDNAKNTLSLQMNSLKPEDTAVYYCAADNPKYRDLYNAHCNWSYRYWGQGTQVTVSS
B4: V-7 (VHH)
VHH: B3 VHH with E16G, T17S, T19R, T23A, Q44K, N75S, D106A, Y108S, N109D
B5: V-9 (VHH)
VHH: B3 VHH with E16G, T17S, T19R, T23A, A62V, S86N, N109D
B6: V-20 (VHH)
VHH: B3 VHH with E16G, T17S, T19R, T23A, A62V, S86N, Y108H, N109G, A110G
B7: V-21 (VHH)
VHH: B3 VHH with E16G, T17S, T19R, T23A, Q44K, N75S, P89S, D106Q, Y108S
B8: V-15 (VHH)
VHH: B3 VHH with V12A, E16G, T17S, T19R, T23A, Q44K, D48G, N109D
B9: V-18 (VHH)
VHH: B3 VHH with E16G, T17S, T19R, T23A, Q44K, A62T, S86N, E90D, N109G
B10: V-1 (VHH)
VHH: QVQLQESGGGSVQAGGSLRLSCRASGYTFSRHCMGWFRQGPGKEREVVATIYTFNGRTYYADSVKGRFTVSQDNAQNSLYLQMDSLKPEDTAMYYCAAARIGWTSVSGSCPRMGDVNKYWGQGTQVTVSS
B11: V-14 (VHH)
VHH: B10 VHH with V70I
B12: V-23 (VHH)
VHH: B10 VHH with R31E, V47L, T50S, V70I
B13: V-19 (VHH)
VHH: B10 VHH with S25P, K43E, Y59T, V70I, V106A, V116E
B14: V-22 (VHH)
VHH: B10 VHH with G40T, R57H, V70I
B15: V-2 (VHH)
VHH: B10 VHH with R57H, V70I, A75P, Y80T
B16: V-3 (VHH)
VHH: B10 VHH with S17T, A24V, Y59S, V70I, M93T, V116E
B17: V-11 (VHH)
VHH: B10 VHH with V47L, T50S, V70I, V116E
B18: V-13 (VHH)
VHH: B10 VHH with R31E, V70I
B19: V-4 (VHH)
VHH: B1 VHH with A23S, Y27G, Y29F, Y37F, E44V, N76T, S92M, W98F, G101W
B20: V-17 (VHH)
VHH: B1 VHH with Q81R, S92I, G101W
B21: V-10 (VHH)
VHH: B1 VHH with A23S, Y27S, Y29F, Y37F, E46G, S92M
B22: V-24 (VHH)
VHH: QVQLQESGGGLVLPGGSLRLSCAAFGFIFSDFDMSWVRQAPGKGLEWVSSISRYGRTSSADSVKGRFTISRDNAKNTLYLQMHSLKTDDTAVYYCATGNFCSGGRCYIDRGQGTQVTVSS
B23: V-25 (VHH)
VHH: B22 VHH with L13Q, D31N, Q81E, H83N, T87S, D88A, D109N
B24: V-28 (VHH)
VHH: B22 VHH with L11S, L13Q, P14A, D31N, F32Y, H83N, A96T, I108S, D109N
B25: V-29 (VHH)
VHH: B22 VHH with L13Q, D31N, F32Y, L45F, S59N, S62A, H83N, D109N
B26: V-27 (VHH)
VHH: B22 VHH with L13Q, D31N, F32Y, H83N
B27: V-26 (VHH)
VHH: B22 VHH with L11S, L13Q, P14A, D31N, F32Y, L45F, S59N, S62A, H83N, D109N

What follows are binders tested against T1, ecto-domain protein of CD147 (Homo sapiens (assumed), isoform 2, UniProt P35613-2, biotin (Sulfo-NHS-LC-Biotin) in the BLI only) (assay: BLI; kinetics between CD147 and EGFP-11-1 (Figure 3F); who was immobilised is not told for this pair). Settings: both partners purified.
T1 construct: CD147 (EMMPRIN, basigin), ecto-domain protein; also called CD147 protein; EMMPRIN
Target sequence in this assay (P35613 whole entry, looked up, tested part not stated, canonical isoform): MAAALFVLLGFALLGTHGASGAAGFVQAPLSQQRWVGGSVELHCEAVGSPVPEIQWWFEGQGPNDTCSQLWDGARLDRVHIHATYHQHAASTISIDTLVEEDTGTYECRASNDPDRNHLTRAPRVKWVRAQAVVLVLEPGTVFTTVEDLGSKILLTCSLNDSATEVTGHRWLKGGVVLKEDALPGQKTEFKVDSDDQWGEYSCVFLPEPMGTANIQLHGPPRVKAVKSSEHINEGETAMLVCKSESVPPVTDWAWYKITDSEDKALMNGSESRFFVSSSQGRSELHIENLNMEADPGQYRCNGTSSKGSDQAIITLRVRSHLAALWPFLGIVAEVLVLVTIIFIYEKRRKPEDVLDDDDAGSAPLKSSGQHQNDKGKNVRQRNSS
B1 gave a Kd of 11.1 nM.

What follows are binders tested against C78 (C-terminal ecto-domain protein of CD147) (assay: BLI; ForteBio Octet; biotin-labeled CD147 or C78 immobilized on the sensors (200 s); Nb 11-1 at different concentrations in PBST, 200 s; PBST 100 s; room temperature, shaking 1,000 rpm). Settings: not given.
Binder B2 has a Kd of 1.78 nM, a koff of 0.000104 s⁻¹ and a kon of 58200 M⁻¹ s⁻¹.

These binders were tested against T1, ecto-domain protein of CD147 in the same assay as above. Settings: both partners purified.
Target sequence in this assay (P35613 whole entry, looked up, tested part not stated, canonical isoform): as above
Work on B2 yielded a Kd of 0.636 nM, a koff of 2.2e-05 s⁻¹ and a kon of 34600 M⁻¹ s⁻¹.

What follows are binders tested against T1, ecto-domain protein of CD147 (assay: not given). Settings: not given.
Target sequence in this assay (P35613 other isoform, or with tags, fused parts or gaps): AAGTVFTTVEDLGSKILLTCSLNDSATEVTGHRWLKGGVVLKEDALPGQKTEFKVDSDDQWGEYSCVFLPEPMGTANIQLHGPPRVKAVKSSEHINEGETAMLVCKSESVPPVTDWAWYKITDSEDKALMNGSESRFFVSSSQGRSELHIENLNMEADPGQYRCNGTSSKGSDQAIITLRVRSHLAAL
B3: binds.
B4: binds.
B5: binds.
B6: binds.
B7: binds.
B8: binds.
B9: binds.
B10: binds.
B11: binds.
B12: binds.
B13: binds.
B14: binds.
B15: binds.
B16: binds.
B17: binds.
B18: binds.
B19: binds.
B20: binds.
B21: binds.
B22: binds.
B23: binds.
B24: binds.
B25: binds.
B26: binds.
B27: binds.
